# Measurements: patent US20250270331A1 (MERUS N V, published 2025)
# Changes are numbered by the printed parent chain.
# T1: E120A
# T1 construct: also called human TGF-βRII with E120A (alanine scan clone)
# T1 receptor: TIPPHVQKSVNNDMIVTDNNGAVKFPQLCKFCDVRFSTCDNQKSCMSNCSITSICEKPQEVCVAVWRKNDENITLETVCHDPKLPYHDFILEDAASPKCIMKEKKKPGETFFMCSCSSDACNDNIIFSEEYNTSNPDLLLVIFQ
# T2: D119A
# T2 construct: also called human TGF-βRII with D119A (alanine scan clone)
# T2 receptor: T1 receptor with D119A, A120E
# T3: T52A
# T3 construct: also called human TGF-βRII with T52A (alanine scan clone)
# T3 receptor: T1 receptor with T52A, A120E
# T4: F25A
# T4 construct: also called human TGF-βRII with F25A (alanine scan clone)
# T4 receptor: T1 receptor with F25A, A120E
# T5: L28A
# T5 construct: L28 is named only on the sheet; also called human TGF-βRII with L28A (alanine scan clone)
# T5 receptor: T1 receptor with L28A, A120E
# T6: I54A
# T6 construct: also called human TGF-βRII with I54A (alanine scan clone)
# T6 receptor: T1 receptor with I54A, A120E
# B1: antibody comprising heavy chain variable regions having SEQ ID NO: 94 (antibody, V domains shown)
# VH: EVQLVESGGGLVQPGGSLRLSCAASGFTFSRYAMSWVRQAPGKGLEWVSSINTSGGNTFYADSVKGRFTISRDNSKNTLYLQMNSLRAEDTAIYYCAKGIAATGKNYFDPWGQGTLVTVSS
# VL: not shown
# notes: IgG expressed in 293T freestyle cells
# B2: antibody comprising heavy chain variable regions having SEQ ID NO: 93 (antibody, V domains shown)
# VH: EVQLVESGGDLVKPGGSLRLSCAASGFTFSNAWMSWVRQAPGKGLEWVGRVKTTVSGGTTDYAAAVKGRFTISRDDSKNTLYLQMNSLKTEDTAIYYCTIDLRDYWGQGTLVTVSS
# VL: not shown
# notes: From the second round of immunization; tested as bivalent IgG
# Experiments:
# [1] = target: T7, Human TGF-βRII-Fc (R&D; cat. no. 341-BR) (human, UniProt P37173 23-159); assay: ligand blocking ELISA: TGF-βRII-Fc on coated TGF-β1, antibody titrated (OD450)
# T7 construct: Bought construct; not shown: Fc part of the bought fusion
# [2] = target: T7, Human TGF-βRII-Fc (R&D; cat. no. 341-BR); assay: ELISA; blocking of TGF-βRII-Fc binding to coated TGF-β1
# E120A = target: T1, E120A; assay: shotgun mutagenesis alanine scan, mean fluorescence of the mutant clone in % of wildtype
# D119A = target: T2, D119A; assay: as above
# T52A = target: T3, T52A; assay: as above
# F25A = target: T4, F25A; assay: as above
# L28A = target: T5, L28A; assay: as above
# I54A = target: T6, I54A; assay: as above
Binder,IC50 (read off the curve) [1] [µg/mL],IC50 [2] [µg/mL],Binding Reactivity (% WT) (E120A),Binding Reactivity (% WT) (D119A),Binding Reactivity (% WT) (T52A),Binding Reactivity (% WT) (F25A),Binding Reactivity (% WT) (L28A),Binding Reactivity (% WT) (I54A)
B1,~0.03,–,–,–,–,–,–,–
B2,–,0.155,91.5,2.8,23.4,2.28,22.8,24
